From the RNAGym collection of RNA variant scans (doi:10.7554/elife.80360) come the findings set out here.

To fix the notation:
B1: CPEB3 Ribozyme (parent)
chain: GGGGGCCACAGCAGAAGCGUUCACGUCGCGGCCCCUGUCAGAUUCUGGUGAAUCUGCGAAUUCUGCUGU

In this data set the parent is B1. The data set is described as follows: self-cleavage, relative activity (ratio to wild type); higher = more cleavage; co-transcriptional.
Regarding GGGGGUCACAGCAGAAGCGUUCACGUCGCGGCCCCUGUCAGAUUAUGGUGAAUCUGCGAAUUCUGCUGU, the self-cleavage came to 1.02. As for GGGGGUCACAGCAGAAGCGUUCACGUCGCGGCCCCUGUCAGAUUGUGGUGAAUCUGCGAAUUCUGCUGU, the figure is 1.02; as for GGGGGUCACAGCAGAAGCGUUCACGUCGCGGCCCCUGUCAGAUUUUGGUGAAUCUGCGAAUUCUGCUGU, 1; as for GGGGGUCACAGCAGAAGCAUUCACGUCGCGGCCCCUGUCAGAUUCUGGUGAAUCUGCGAAUUCUGCUGU, 0.117. Consider GGGGGUCACAGCAGAAGCCUUCACGUCGCGGCCCCUGUCAGAUUCUGGUGAAUCUGCGAAUUCUGCUGU, for which the self-cleavage was found to be 0.124.

In the case of GGGGGUCACAGCAGAAGCGUUCACGUCGCGGCCCCUGUCAGAUUCUGGUGAAUCUGCGAACUCUGCUGU, the self-cleavage turned out to be 0.647. To GGGGGUCACAGCAGAAGCGUUCACGUCGCGGCCCCUGUCAGAUUCUGGUGAAUCUGCGAAAUCUGCUGU belongs 0.736; to GGGGGUCACAGCAGAAGCGUUCACGUCGCGGCCCCUGUCAGAUUCUGGUGAAUCUGCCAAUUCUGCUGU, 0.909; to GGGGGUCACAGCAGAAGCGUUCACGUCGCGGCCCCUGUCAGAUUCUGGUGAAUCUGCAAAUUCUGCUGU, 0.981. As for GGGGGUCACAGCAGAAGCGUUCACGUCGCGGCCCCUGUCAGAUUCUGGUGAAUCUGCGAAUUUUGCUGU, the figure is 1.01; as for GGGGGUCACAGCAGAAGCGUUCACGUCGCGGCCCCUGUCAGAUUCUGGUGAAUCUGCGAAUUGUGCUGU, 0.808. In the case of GGGGGUCACAGCAAAAGCGUUCACGUCGCGGCCCCUGUCAGAUUCUGGUGAAUCUGCGAAUUCUGCUGU, the self-cleavage stood at 0.672.

For GGGGGUCACAGCAGAAGCGUUCACGUCGCGGCCCCUGUCAGAUUCUGGUGAAUCUGCGAAUUCUGCUCU, the self-cleavage was 0.999. As for GGGGGUCACAGCAGAAGCGUUCACGUCGCGGCCCCUGUCAGAUUCUGGUGAAUCUGCGAAUUCUGCUUU, the figure is 1.02; as for GGGGGUCACAGCAGAAGCGUUCACGUCGCGGCCCCUGUCAGAUUCUGGUGAAUCUGCGAAUUCUGCUAU, 1.03; as for GGGGGUCACAGCAGAAGCGUUCACGUCGCGGCCACUGUCAGAUUCUGGUGAAUCUGCGAAUUCUGCUGU, 0.426. As for GGGGGUCACAGCAGAAGCGUUCACGUCGCGGCCUCUGUCAGAUUCUGGUGAAUCUGCGAAUUCUGCUGU, the figure is 0.944; as for GGGGGUCACAGCAGAAGCGUUCACGUCGCGGCCCCUGUCAGAUUCUGGUGAAUCUGCGAAUUCUCCUGU, 0.636; as for GGGGGUCACAGCAGAAGCGUUCACGUCGCGGCCCCUGUCAGAUUCUGGUGAAUCUGCGAAUUCUUCUGU, 0.719. In the case of GGGGGUCACAGCAGAAGCGUUCACGUCGCGGCCCAUGUCAGAUUCUGGUGAAUCUGCGAAUUCUGCUGU, the self-cleavage turned out to be 0.189. Take GGGGGUCACAGCAGAAGCGUUCACGUCGCGGCCCCUGUCAGAUUCUGGUGAAUAUGCGAAUUCUGCUGU: the self-cleavage was found to be 0.847. Take GGGGGUCACAGCAGAAGCGUUCACGUCGCGGCCCCUGUCAGAUUCUGGUGAAUGUGCGAAUUCUGCUGU: the self-cleavage came out at 0.733. Turning to GGGGGUCACAGCAGAAGCGUUCACGUCGCGGCCCCUGUCAGAUUCUGCUGAAUCUGCGAAUUCUGCUGU, the self-cleavage stood at 0.995. Turning to GGGGGUCACAGCAGAAGCGUUCACGUCGCGGCCCCUGUCAGAUUCUGAUGAAUCUGCGAAUUCUGCUGU, the self-cleavage was 1.03. To GGGGGUCACAGCAGAAGCGUUCACGUCGCGCCCCCUGUCAGAUUCUGGUGAAUCUGCGAAUUCUGCUGU belongs 0.536; to GGGGGUCACAGCAGAAGCGUUCACGUCGCGUCCCCUGUCAGAUUCUGGUGAAUCUGCGAAUUCUGCUGU, 0.914; to GGGGGUCACAGCAGAAGCGUUCACGUCGCGGCCCCUGUCAGAUUCUCGUGAAUCUGCGAAUUCUGCUGU, 0.996. As for GGGGGUCACAGCAGAAGCGUUCACGUCGCGGCCCCUGUCAGAUUCUUGUGAAUCUGCGAAUUCUGCUGU, the figure is 1.02; as for GGGGGUCACAGCAGAAGCGUUCACGUCGCGGCCCCUGUCAGAUUCUAGUGAAUCUGCGAAUUCUGCUGU, 1.01. As for GGGGGUCACAGCAGAAGCGUUCACGUCGCGGCCCCUAUCAGAUUCUGGUGAAUCUGCGAAUUCUGCUGU, the figure is 0.22; as for GGGGGUCACAGCAGAAGCGUUCACGUCGCGGCCCCUUUCAGAUUCUGGUGAAUCUGCGAAUUCUGCUGU, 0.169; as for GGGGGUCACAGCAGAAGCGUUCACGUCGCGGCCCCUCUCAGAUUCUGGUGAAUCUGCGAAUUCUGCUGU, 0.154. GGGGGUCACAGCAGAAGCGUUCACGUCGCGGCCCCUGUCAGAUUCUGGUGAAUCCGCGAAUUCUGCUGU: the self-cleavage is 0.775. As for GGGGGUCACAGCAGAAGCGUUCACGUCGCGGCCCCUGUCAGAUUCUGGUGAAUCAGCGAAUUCUGCUGU, the figure is 0.989. As for GGGGGUCACAGCAGAAGCGUUCACGUCGCGGCCCCUGUCAGAUUCUGGUGAAUCGGCGAAUUCUGCUGU, the figure is 0.888; as for GGGGGUCACAGCAGAAGCGUUCACGUCGCGGCCCCUGUUAGAUUCUGGUGAAUCUGCGAAUUCUGCUGU, 0.955; as for GGGGGUCACAGCAGAAGCGUUCACGUCGCGGCCCCUGUGAGAUUCUGGUGAAUCUGCGAAUUCUGCUGU, 0.899. As for GGGGGUCACAGCAGAAGCGUUCACGUCGCGGCUCCUGUCAGAUUCUGGUGAAUCUGCGAAUUCUGCUGU, the figure is 0.863; as for GGGGGUCACAGCAGAAGCGUUCACGUCGCGGCCCCUGUCAGAUUCUGGUGAAACUGCGAAUUCUGCUGU, 0.977. As for GGGGGUCACAGCAGAAGCGUUCACGUCGCGGCCCCUGUCAGAUUCUGGUGAAGCUGCGAAUUCUGCUGU, the self-cleavage amounted to 0.719. For GGGGGUCACAGCAGAAGCGUUCACGUCGCGGCCCCUGUCAGAUUCUGGUGAACCUGCGAAUUCUGCUGU, the self-cleavage was 0.914.

For the variant GGGGGUCACAGCAGAAGCGUUCACGUCGCGGCCCCUGGCAGAUUCUGGUGAAUCUGCGAAUUCUGCUGU, the self-cleavage turned out to be 0.12. As for GGGGGUCACAGCAGAAGCGUUCACGUCGCGGCCCCUGCCAGAUUCUGGUGAAUCUGCGAAUUCUGCUGU, the figure is 0.929. As for GGGGGUCACAGCAGAAGCGUUCACGUCGCGGCCCCUGUCAGAUUCUGGUGAAUCUGUGAAUUCUGCUGU, the self-cleavage is 0.363. As for GGGGGUCACAGCAGAAGCGUUCACGUCGCGGCCCCUGUCAGAUUCUGGUGAAUCUGAGAAUUCUGCUGU, the figure is 0.362; as for GGGGGUCACAGCAGAAGCGUUCACGUCGCGGCCCCUGUCAGAUUCUGGUGAAUCUGGGAAUUCUGCUGU, 0.266; as for GGGGGUCACAGCAGAAACGUUCACGUCGCGGCCCCUGUCAGAUUCUGGUGAAUCUGCGAAUUCUGCUGU, 0.315. As for GGGGGUCACAGCAGAACCGUUCACGUCGCGGCCCCUGUCAGAUUCUGGUGAAUCUGCGAAUUCUGCUGU, the figure is 0.0825; as for GGGGGUCACAGCAGAAGCGUUCACGUCGCGGCCCCUGUCAGAUUCUGGCGAAUCUGCGAAUUCUGCUGU, 1.02; as for GGGGGUCACAGCAGAAGCGUUCACGUCGCGGCCCCUGUCAGAUUCUGGUGAAUCUUCGAAUUCUGCUGU, 0.968. To GGGGGUCACAGCAGAAGCGUUCACGUCGCGGCCCCUGUCAGAUUCUGGUGAAUCUCCGAAUUCUGCUGU belongs 0.772; to GGGGGUCACAGCAGAAGCGUGCACGUCGCGGCCCCUGUCAGAUUCUGGUGAAUCUGCGAAUUCUGCUGU, 0.329; to GGGGGUCACAGCAGAAGCGUCCACGUCGCGGCCCCUGUCAGAUUCUGGUGAAUCUGCGAAUUCUGCUGU, 0.827. For GGGGGUCACAGCAGAAGCGUUCACGUCGCGGCCCCUGUCAGAUACUGGUGAAUCUGCGAAUUCUGCUGU, the self-cleavage stood at 0.887.

As to GGGGGUCACAGCAGAAGCGUUCACGUCGCGGCCCCUGUCAGAUCCUGGUGAAUCUGCGAAUUCUGCUGU, the self-cleavage is 0.933.

GGGGGUCACAGCAGAAGCGGUCACGUCGCGGCCCCUGUCAGAUUCUGGUGAAUCUGCGAAUUCUGCUGU: the self-cleavage is 0.174.

Turning to GGGGGUCACAGCAGAAGCGUUCACGUCGCGGCCCCAGUCAGAUUCUGGUGAAUCUGCGAAUUCUGCUGU, the self-cleavage stood at 0.221. To GGGGGUCACAGCAGAAGCGUUCACGUCGCGGCCCCGGUCAGAUUCUGGUGAAUCUGCGAAUUCUGCUGU belongs 0.127; to GGGGGUCACAGCAGAAGCGUUCACGUCGCGGCCCCUGUCAGAUUCUGGUAAAUCUGCGAAUUCUGCUGU, 0.982. As to GGGGGUCACAGCAGAAGCGUUCACGUCGCGGCCCCUGUCAGAUUCGGGUGAAUCUGCGAAUUCUGCUGU, the self-cleavage came out at 0.987. As for GGGGGUCACAGCAGAAGCGUUCACGUCGCGGCCCCUGUCAGAUUCAGGUGAAUCUGCGAAUUCUGCUGU, the figure is 0.944. Take GGGGGUCACAGCAGAAGCGUUCACGUCGCGGCCCCUGUCAGAUUCCGGUGAAUCUGCGAAUUCUGCUGU: the self-cleavage was 1.

With GGGGGUCACAGCAGAAGCGUUCACGUCGCGGCCCCUGUCAGAUUCUGGUGAAUCUGCGAAUUCUGAUGU, the self-cleavage was 0.881. To GGGGGUCACAGCAGAAGCGUUCACGUCGCGGCCCCUGUCAGAUUCUGGUGAAUCUGCGAAUUCUGGUGU belongs 0.939; to GGGGGUCACAGCAGAAGCGUUCACGUCGCGGCCCCUGUCAGAUUCUGGUGAAUCUGCGAAUUCUGUUGU, 0.991. For the variant GGGGGUCACAGCAGAAGCGUUCACCUCGCGGCCCCUGUCAGAUUCUGGUGAAUCUGCGAAUUCUGCUGU, the self-cleavage worked out at 0.13.

On to GGGGGUCACAGCAGAAGCGUUCACGUCGCGGCCCCUGUCAAAUUCUGGUGAAUCUGCGAAUUCUGCUGU, for which the self-cleavage came out at 0.815. To GGGGGUCACAGCAGAAGCGUUCACGUCGCGGCCCCUGUCACAUUCUGGUGAAUCUGCGAAUUCUGCUGU belongs 0.708; to GGGGGUCACAGCAGAAGCGUUCACGUCGCCGCCCCUGUCAGAUUCUGGUGAAUCUGCGAAUUCUGCUGU, 0.348; to GGGGGUCACAGCAGAAGCGUUCACGUCGCUGCCCCUGUCAGAUUCUGGUGAAUCUGCGAAUUCUGCUGU, 0.235. To GGGGGUCACAGCAGAAGCGUUCACGUCGCAGCCCCUGUCAGAUUCUGGUGAAUCUGCGAAUUCUGCUGU belongs 0.632; to GGGGGUCACAGCAGAAGCGUUCACGCCGCGGCCCCUGUCAGAUUCUGGUGAAUCUGCGAAUUCUGCUGU, 0.893; to GGGGGUCACAGCAGAAGCGUUCACGACGCGGCCCCUGUCAGAUUCUGGUGAAUCUGCGAAUUCUGCUGU, 0.833. To GGGGGUCACAGCAGAAGCGUUCACGUCCCGGCCCCUGUCAGAUUCUGGUGAAUCUGCGAAUUCUGCUGU belongs 0.0878. In the case of GGGGGUCACAGCAGAAGCGUUCACGUCACGGCCCCUGUCAGAUUCUGGUGAAUCUGCGAAUUCUGCUGU, the self-cleavage stood at 0.0973. To GGGGGUCACACCAGAAGCGUUCACGUCGCGGCCCCUGUCAGAUUCUGGUGAAUCUGCGAAUUCUGCUGU belongs 0.828; to GGGGGUCACAUCAGAAGCGUUCACGUCGCGGCCCCUGUCAGAUUCUGGUGAAUCUGCGAAUUCUGCUGU, 0.876. As for GGGGGUCACAGCAGAAGCGUUCACGUCGCGGCCCCUGUCAGAAUCUGGUGAAUCUGCGAAUUCUGCUGU, the figure is 0.917.
